Test results as given in patent US20050249750A1.
Where no end group is shown, it is not given here.

T1: DR molecule DRA1*0101/DRB1*0701 on transfected murine L cells (human), P01903
T1 chain 1: not shown
T1 chain 2: not shown

T2: DR molecule DRA1*0101/DRB1*0401 on transfected murine L cells (human), P01903
T2 chain 1: not shown
T2 chain 2: not shown

T3: soluble DR4 (DRB1*0401) class II molecules purified from BSM or PREISS EBV-B cells (human), P01903
T3 chain 1: not shown
T3 chain 2: not shown

T4: soluble DR 1 (DRB1*0101) class II molecules purified from HOM-2 EBV-B cells (human), P01903
T4 chain 1: not shown
T4 chain 2: not shown

T5: soluble DR 7 (DRB1*0701) class II molecules purified from EKR EBV-B cells (human), P01903
T5 chain 1: not shown
T5 chain 2: not shown

T6: soluble DR 3 (DRB1*0301) class II molecules purified from WT49 EBV-B cells (human), P01903
T6 chain 1: not shown
T6 chain 2: not shown

T7: soluble DR 2a (DRB5*0101) molecules isolated from L cells transfectant L416.3 (human), P01903
T7 chain 1: not shown
T7 chain 2: not shown

T8: soluble DR 8 (DRB1*0801) class II molecules purified from BM9 EBV-B cells (human), P01903
T8 chain 1: not shown
T8 chain 2: not shown


Columns and labels:
[1] = target: T1, DR molecule DRA1*0101/DRB1*0701 on …; assay: FACS, biotinylated peptide 100 µg/ml on DR-transfected murine L cells
[2] = target: T2, DR molecule DRA1*0101/DRB1*0401 on …; assay: as above
[3] = target: T3, soluble DR4 (DRB1*0401) class II …; assay: peptide competition ELISA, soluble DR 4, biotinylated indicator UD4
[4] = target: T3, soluble DR4 (DRB1*0401) class II …; assay: peptide competition ELISA, soluble DR4, biotinylated indicator GFK(A)7
[5] = target: T4, soluble DR 1 (DRB1*0101) class II …; assay: peptide competition ELISA, soluble DR 1, biotinylated indicator GFK(A)7
[6] = target: T5, soluble DR 7 (DRB1*0701) class II …; assay: peptide competition ELISA, soluble DR 7, biotinylated indicator GFK(A)7, pH 5
[7] = target: T6, soluble DR 3 (DRB1*0301) class II …; assay: peptide competition ELISA, soluble DR 3, biotinylated indicator IAYD(A)5
[8] = target: T7, soluble DR 2a (DRB5*0101) molecules …
[9] = target: T8, soluble DR 8 (DRB1*0801) class II …; assay: peptide competition ELISA, soluble DR 8, biotinylated indicator GYR(A)6L
[10] = target: soluble DR 11 (DRB1*1101) class II molecules purified from SWEIG EBV-B cells (human), P01903; assay: peptide competition ELISA, soluble DR 11, biotinylated indicator TT831-843

Row | Binder | MFC (mean fluorescence channel) [1] [MFC] | MFC (mean fluorescence channel) [2] [MFC] | IC50 [3] [µM] | IC50 [4] [µM] | IC50 [5] [µM] | IC50 [6] [µM] | IC50 [7] [µM] | IC50 [8] [µM] | IC50 [9] [µM] | IC50 [10] [µM]
1 | DPNANPNVDPNANPNV (not fully specified (N-terminus)) [NH2 terminal biotinylated T1 peptide] | 35.7 | 18.9 | – | – | – | – | – | – | – | –
2 | DPNANPNVDPNANPNV (modifications not checked) | – | – | > 100 | > 100 | > 100 | > 100 | > 100 | > 100 | > 100 | > 100
